The values below are quoted from earlier work in patent publication US8901073B2, “Compounds and their effects on feeding behaviour” (Imperial Innovations Limited, priority 2011, dated 2014).

For the series the following is noted: endogenous PYY in circulation; cited from earlier work.

With “endogenous PYY: peptide YY polypeptide, a hormone secreted into the blood by cells lining the lower small intestine and the colon”, the half life result was “several minutes”.
